These results are taken from paper PMC5522267, “Targeting PEPT1: a novel strategy to improve the antitumor efficacy of doxorubicin in human hepatocellular carcinoma therapy” (Oncotarget, 2017).

Data set [1] concerns the target T1, PEPT1 (Homo sapiens, UniProt P46059).
T1 construct: Doxorubicin-tripeptide conjugate were incubated with HCC cell monolayer at pH 6.0 for 120 min; endogenous in cells; host or cells: Bel-7402, HepG2 (human HCC cells); Caco-2
T1 sequence (P46059 1-708): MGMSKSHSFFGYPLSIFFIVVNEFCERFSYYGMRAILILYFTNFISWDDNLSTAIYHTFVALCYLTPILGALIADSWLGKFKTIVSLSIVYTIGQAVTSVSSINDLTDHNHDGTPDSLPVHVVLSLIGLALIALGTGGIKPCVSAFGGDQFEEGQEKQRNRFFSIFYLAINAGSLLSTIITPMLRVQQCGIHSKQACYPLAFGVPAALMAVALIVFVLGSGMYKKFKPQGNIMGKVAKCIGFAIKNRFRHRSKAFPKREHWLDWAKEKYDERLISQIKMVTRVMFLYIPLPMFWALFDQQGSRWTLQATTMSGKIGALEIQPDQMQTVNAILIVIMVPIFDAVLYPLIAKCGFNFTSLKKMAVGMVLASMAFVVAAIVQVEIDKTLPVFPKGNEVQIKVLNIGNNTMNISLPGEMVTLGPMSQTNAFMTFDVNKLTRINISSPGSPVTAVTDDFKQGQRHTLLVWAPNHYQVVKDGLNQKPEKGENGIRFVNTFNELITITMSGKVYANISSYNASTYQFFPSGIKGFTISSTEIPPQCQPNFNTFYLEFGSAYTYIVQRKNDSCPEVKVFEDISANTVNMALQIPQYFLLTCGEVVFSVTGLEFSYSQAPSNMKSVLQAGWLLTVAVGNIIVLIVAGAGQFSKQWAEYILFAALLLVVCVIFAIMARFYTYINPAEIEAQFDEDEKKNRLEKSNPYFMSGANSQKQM
Also on record: method as in previous research of the authors (Figure 1). Particulars: Bel-7402, HepG2 and Caco-2 cells; ref previous research of the authors (Figure 1); cited from earlier work.

A short description of data set [2]: Drug distribution in tissues by Small Animal Imaging, Bel-7402 HCC mice. Type of data set: in vivo, nude mice. Particulars: Bel-7402 HCC mice (high dose group), compared with Doxorubicin group.
Text: (§5) What's more, the tumor, liver, jejunum and heart tissue of mice were dissected firstly for Small Animal Imaging (KODAK IS in-vivo FX, Kodak), and secondly were placed in the 10% Formaldehyde solution to prepare paraffin section, HE staining for histological examination.
Data set [3] deals with Bel-7402. Put plainly: Drug concentration in tumor cells by HPLC, Bel-7402. The class given is cell-based, human. The note with it: incubated 2 hours. Here is the method: (§1) When the density of HCC cells reached to 3 × 10^6/ml, they were trypsinized and centrifuge (4°C, 800rpm, 5min), then discarded the supernatant, dropping medium 3 ml and evenly mixed. Cell suspension was divided into three groups (control group, Doxorubicin-tripeptide conjugate group and Doxorubicin group). The drug concentration was 0.01 mg/ml for cultured 2 hours avoiding light. Then the cells obtained by centrifugation were proceeded by the following steps: washed 3 times with 1 ml normal saline, added 0.5 ml ultra pure water (Millipore), broken by ultrasonic wave, drooped in acetonitrile (Tianjin Concord Technology Co. Ltd, China) 0.5 ml, mixed, ultrasonic oscillation for 10 mins, centrifuge (1200 rpm, 15 min), take the supernatant, filtration with filter membrane, take 20 μl for HPLC analysis (Agilent 1100 HPLC system, USA).
(§2) Chromatographic conditions were as follows: chromatographic column: DIONEX Acclaim 120 C18 (2.1 × 250 mm, 5 μm 120A), Mobile phase: Acetonitrile-0.2%NaH2PO4 aqueous solution (35: 65), Velocity: 0.35 ml/min, column temperature: 30°C, DAD, 254 nm, sample size: 20 μl. […] According to the chromatographic condition, the retention time (tR), peak position time, chromatographic behavior, resolution (R), the minimum detectable concentration and the intracellular drug concentration of these two drugs were detected in turn.

For data set [4], the system named is HCC cells. Put plainly: MTT on HCC cells (cell line not given). The class given is cell-based, human. Here is the method:
(§3) Cells in the growth log phase were seeded in 96-well plate (200 ul/well) with density 8×10^3/well for 24 hours, then the drugs were added. The concentration of Doxorubicin-tripeptide conjugate was 0.005 mg/ml, 0.01 mg/ml, 0.02 mg/ml, 0.04 mg/ml, 0.06 mg/ml in turn, while Doxorubicin followed by 0.005 mg/ml, 0.01 mg/ml, 0.02 mg/ml, 0.04 mg/ml, 0.06 mg/ml with a same dosing volume 100 μl. Each concentration group included five equal wells and was provided with a control well of medium alone as a negative control. Add 20 μl of MTT Reagent ( 5 mg/ml, Sigma) to each well, including controls and continue to be incubated at 37°C for 4 hours. Remove the supernatant, drop plus DMSO (200 μl/well) and measure the OD value in each well, including the blanks, at 490 nm by a Multi-Mode Reader (BioTek, Synergy 2, USA). To calculate the inhibitory rate and the half maximal inhibitory concentration (IC50) according to the formula: Inhibitory rate =(1-( the dosing group OD/the control group OD )) × 100%, IC50 = lg^-1 (Xm-i (ΣP-0.5)) (Xm: the logarithm of maximum concentration, I: the logarithm of maximum dose/ adjacent dose, P: the sum of each group inhibitory rate, Pm: the maximum inhibitory rate, Pn: the minimum inhibitory rate ).

Data set [5] concerns HepG2. Kind of data set: Drug concentration in tumor cells by HPLC, HepG2. Type of data set: cell-based, human. The note with it: incubated 2 hours. Here is the method:
as §1, §2

Data set [6] is described as follows: Cardiac indexes, HepG2 HCC mice. The class given is in vivo, nude mice. The note with it: low dose, after treatment.
A short description of data set [7]: Blood routine, HepG2 HCC mice. The class given is in vivo, nude mice. The note with it: low dose, after treatment.
Data set [8] can be described thus: Drug distribution in tissues by Small Animal Imaging, HepG2 HCC mice. The class given is in vivo, nude mice. The note with it: HepG2 HCC mice (low dose group), compared with control group.
Text: as §5
For data set [9], the system named is Caco2. Kind of data set: cells. Type of data set: cell-based, human. The note with it: Caco2, MTT. On the procedure:
as §3

In data set [10] the test system is HepG2. Kind of data set: cells. Type of data set: cell-based, human. Particulars: HepG2, MTT. On the procedure:
as §3

Data set [11] relates to Bel-7402. Put plainly: cells. Type of data set: cell-based, human. Particulars: Bel-7402, MTT. Here is the method:
as §3

Data set [12] relates to Caco2. Kind of data set: Drug concentration in tumor cells by HPLC, Caco2. Type of data set: cell-based, human. Particulars: incubated 2 hours.
The nature of data set [13]: Blood routine, Bel-7402 HCC mice. Type of data set: in vivo, nude mice. Particulars: high dose, after treatment.
Data set [14] in a line: Cardiac indexes, Bel-7402 HCC mice. The note with it: high dose, after treatment. The class given is in vivo, nude mice.
Data set [15] relates to HepG2 HCC. An excerpt:
(§4) An animal model of HCC cells (Bel-7402, HepG2) transplanted into nude mice was established according to the method described in ref. 10.

Data set [16] concerns Bel-7402 HCC.
Text: as §4

Marks after values point to notes of the source that are not given here.

In general, IC50 refers to the concentration needed to halve the response being measured.

In the case of `Cc1c(CC(=O)NCCCC[C@H](NC(=O)[C@@H](C)N)C(=O)O)c(=O)oc2cc(N)ccc12` [Ala-Lys-AMCA], in data set [1], the “inhibition of uptake by PEPT1 substrates” value is recorded as “competitive inhibition by three known substrates of PEPT1”; the “uptake dependence on time and concentration” value was “time-dependent and concentration-dependent”.

Regarding `COc1cccc2c1C(=O)c1c(O)c3c(c(O)c1C2=O)C[C@@](O)(C(=O)CO)C[C@@H]3O[C@H]1C[C@H](NC(=O)CNC(=O)CNC(=O)CN)[C@H](O)[C@H](C)O1` [Doxorubicin-tripeptide conjugate], the “drug distribution in tissues” value in data set [2] is “mainly distributed in subcutaneous tumor tissue and liver metastatic tumor tissue and less in heart tissue”; in data set [8], “mainly distributed in subcutaneous tumor tissue and less in heart tissue”. The “drug concentration in tumor cells” value in [3] was 3080 ± 30 ng/mL; in data set [5], 2940 ± 20 ng/mL; in data set [12], 3090 ± 30 ng/mL. Besides, the concentration for half-maximal inhibition (IC50) stood at 50 µg/mL in data set [4], 52.9 µg/mL in data set [9], 51.4 µg/mL in data set [10] and 52.5 µg/mL in data set [11]. The AST is given as 637.75 ± 319.83 U/L in [6] and 720.83 ± 303.52^b U/L in data set [14]. The CK is 1070.75 ± 193.32 U/L in [6] and 1025.17 ± 182.34^b U/L in [14]. The results for the CK-Mb in [6] and in [14] were 570.00 ± 99.07^b U/L and 424.33 ± 189.91^b U/L, respectively. Also, the GSH-PX in data set [6] is 682.33 ± 51.09 U; in data set [14], 700.50 ± 79.58^b U. In addition, the LDH in data set [6] was 6116.75 ± 1136.22 U/L; in data set [14], 6517.00 ± 1956.59 U/L. Further, the MDA in data set [6] is 3.16 ± 0.26 nmol/mg; in [14], 2.78 ± 0.22^b nmol/mg. In addition, the SOD in data set [6] is given as 164.15 ± 25.20 U/mg; in data set [14], 171.71 ± 15.51 U/mg. Moreover, the PLT in [7] is given as 135.00 ± 69.55 ×10^9/l; in data set [13] it was 159.83 ± 74.74^b ×10^9/l. Moreover, the RBC in data set [7] is recorded as 8.03 ± 0.91 ×10^12/l; in data set [13] it was 7.50 ± 1.77 ×10^12/l. Besides, the WBC in data set [7] is 8.08 ± 3.40 ×10^9/l; in [13], 7.05 ± 2.70^b ×10^9/l. In addition, for the setting “HCC mice, both dose groups”, the “change of mice weight during treatment” value is given as “weight increase in group B at the early stage of treatment, but a weight decreased significantly at the late stage of treatment”. Further, the “survival quality (general condition)” value (HCC mice, both dose groups) is “lethargy, vomiting and loss of appetite administered within 3 days, then gradually restored”. The “damage to heart and bone marrow” value (compared with the Doxorubicin group, cardiac indexes, histopathology, blood routine, bone marrow smears, P < 0.05) was “less damage to the heart and bone marrow”. For the same molecule, the deaths during treatment entry in data set [15] (HepG2, low dose group, 5W) was “no death”; in data set [16] (Bel-7402, high dose group, 5W), 1 death during the treatment of 4W+. The “Mice weight, Before treatment” value in [15] (HepG2 HCC mice, baseline) was found to be 20.88 ± 5.37 g; in [16] (Bel-7402 HCC mice, baseline), 23.22 ± 1.57 g. Besides, the “Mice weight, After treatment” value in data set [15] (HepG2 HCC mice, low dose: Doxorubicin 40 mg/m^2, conjugate 200 mg/m^2, tail vein, 5 weeks) was 19.90 ± 3.71 g; in [16] (Bel-7402 HCC mice, high dose: Doxorubicin 60 mg/m^2, conjugate 300 mg/m^2, tail vein, 5 weeks) it was 20.13 ± 1.09^a g.
